The results in this text go back to US20240352099A1 (JULIUS MAXIMILIANS UNIVERSIT T W RZBURG, published 2024).

The target of test [1] is T1, Pra1 on C. albicans strain SC5314 hyphae (Candida albicans, UniProt P87020 16-299).
T1 construct: whole, on cells; The stained target is the whole fungal cell; also called C. albicans hyphae
T1 sequence (looked up): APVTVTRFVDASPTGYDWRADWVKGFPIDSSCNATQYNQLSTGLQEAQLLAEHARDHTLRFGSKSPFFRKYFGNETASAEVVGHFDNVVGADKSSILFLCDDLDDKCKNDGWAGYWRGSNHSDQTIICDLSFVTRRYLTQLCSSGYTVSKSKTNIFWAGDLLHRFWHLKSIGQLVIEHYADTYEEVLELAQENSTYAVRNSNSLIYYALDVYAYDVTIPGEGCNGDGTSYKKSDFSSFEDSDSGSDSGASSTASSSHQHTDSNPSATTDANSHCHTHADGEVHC
The test can be described thus: flow cytometry and confocal microscopy, summary. (In general: In flow cytometry, cells or beads pass a laser one at a time.)

The target of test [2] is T2, Tef1 on C. albicans strain SC5314 hyphae (Candida albicans, UniProt P0CY35 2-458).
T2 construct: whole, on cells; The stained target is the whole fungal cell; also called C. albicans hyphae
T2 sequence (looked up): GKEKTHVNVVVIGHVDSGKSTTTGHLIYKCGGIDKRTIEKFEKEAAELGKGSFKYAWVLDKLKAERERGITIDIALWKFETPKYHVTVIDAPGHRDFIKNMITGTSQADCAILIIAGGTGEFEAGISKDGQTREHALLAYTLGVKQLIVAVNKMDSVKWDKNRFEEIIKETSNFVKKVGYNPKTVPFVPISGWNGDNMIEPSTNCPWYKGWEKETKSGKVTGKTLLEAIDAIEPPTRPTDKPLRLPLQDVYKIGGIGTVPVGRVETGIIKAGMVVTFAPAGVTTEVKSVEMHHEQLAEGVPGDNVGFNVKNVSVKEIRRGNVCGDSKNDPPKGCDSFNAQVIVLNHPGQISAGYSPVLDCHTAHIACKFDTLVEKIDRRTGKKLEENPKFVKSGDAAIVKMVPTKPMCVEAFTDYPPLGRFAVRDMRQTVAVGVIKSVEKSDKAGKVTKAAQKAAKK
In words: flow cytometry on C. albicans.

B1: monoclonal antibody 8C3 directed against Pra1 of Candida albicans, produced by the hybridoma cell line DSM ACC 3369 (antibody, mouse IgG1, kappa, V domains shown)
VH: EVQLVESGGDLVKPGGSLKLSCAASGFTFSTYGMSWVRQTPDKRLEWVATISSGGSYTYYPDSVKGRFTISRDNVKNTLYLQMSSLKSEDTAMYYCARQGLDDNYAEWYFDVWGAGTTVTVSS
VL: DILLTQSPATLSVTPGETVSLSCRASQSIYKNLHWYQQKSHRSPRLLIKYASDSISGIPSRFTGSGSGTDYTLSINSVKPEDEGKYYCLQGFSTPWTFGGGTKLEIKR
notes: Mouse IgG1, kappa from hybridoma; also called mAb 8C3; anti-Pra1 mAb 8C3
With B1, the binding result in test [1] is “binds”.

B2: monoclonal antibody 5E1 directed against Tef1 of Candida albicans, produced by the hybridoma cell line DSM ACC 3368 (antibody)
heavy: EVKLVESGGGLVKPGGSLKLSCAASGFTFSSYAMSWVRQTPEKRLEWVASISSGGSTYYPDSVKGRFTISRDNARNILYLQMSSLRSEDTAMYYCARGYDGYDYWGQGTTLTVSSESQSFPNVFPLVSCESPLSDKNLVAMGCLARDFLPSTISFTWNYQNNTEVIQGIRTFPTLRTGGKYLATSQVLLSPKSILEGSDEYLVCKIHYGGKNRDLHVPIPAVAEMNPNVNVFVPPRDGFSGPAPRKSKLICEATNFTPKPITVSWLKDGKLVESGFTTDPVTIENKGSTPQTYKVISTLTISEIDWLNLNVYTCRVDHRGLTFLKNVSSTCAASPSTDILTFTIPPSFADIFLSKSANLTCLVSNLATYETLNISWASQSGEPLETKIKIMESHPNGTFSAKGVASVCVEDWNNRKEFVCTVTHRDLPSPQKKFISKPNEVHKHPPAVYLLPPAREQLNLRESATVTCLVKGFSPADISVQWLQRGQLLPQEKYVTSAPMPEPGAPGFYFTHSILTVTEEEWNSGETYTCVVGHEALPHLVTERTVDKSTGKPTLYNVSLIMSDTGGTCY
light: not shown
notes: Mouse IgM, kappa from hybridoma; also called mAb 5E1; anti-Tef1 mAb 5E1
For the molecule B2, the binding result in test [2] is listed as “binds”.
